In patent KR20220054080A (dated 2022):
Several values for one entry are separate records, joined by “and”; a condition that tells them apart may be missing. Identical values can stand only once. Like-named read-outs stand apart in the source and are kept apart here.

Assays:
[1] = molecular target: T1, SARS-CoV 스파이크 [change] (#40150-V08B1, Sino Biological) (SARS-CoV, UniProt P59594 14-667); assay: ELISA, coated S1-His
[2] = molecular target: T2, SARS-CoV-2 RBD-hFc (SARS-CoV-2, UniProt P0DTC2 319-541); assay: cell-based or functional assay
[3] = molecular target: T3, SARS-CoV-2 spike protein on live SARS-CoV-2 virus (SARS-CoV-2, UniProt P0DTC2 14-1273); assay: cell-based or functional assay
[4] = molecular target: T2, SARS-CoV-2 RBD-hFc; assay: cell-based or functional assay; remark: listed apart in the source
[5] = molecular target: T3, SARS-CoV-2 spike protein on live …; assay: cell-based or functional assay; remark: listed apart in the source
[6] = molecular target: SARS-CoV RBD-His (#40150-V08B2, Sino Biological) (SARS-CoV, UniProt P59594 306-527); assay: ELISA, coated His-tagged antigen
[7] = molecular target: T4, SARS-CoV-2 스파이크 S1-mFc (SARS-CoV-2, UniProt P0DTC2 16-685); assay: competition ELISA: S1-mFc on coated ACE2-His
T4 construct: range 16-685

[8] = molecular target: T4, SARS-CoV-2 스파이크 S1-mFc; assay: competition ELISA: S1-mFc on coated ACE2-His; remark: listed apart in the source
[9] = molecular target: T5, SARS-CoV-2 RBD-mFc (SARS-CoV-2, UniProt P0DTC2 319-541); assay: competition ELISA: RBD-mFc on coated ACE2-His
T5 construct: range 319-541

[10] = molecular target: T5, SARS-CoV-2 RBD-mFc; assay: competition ELISA: RBD-mFc on coated ACE2-His; remark: listed apart in the source
[11] = molecular target: T5, SARS-CoV-2 RBD-mFc; assay: flow cytometry competition: RBD-mFc on HEK293E/ACE2 cells
[12] = molecular target: T5, SARS-CoV-2 RBD-mFc; assay: as above; remark: listed apart in the source
[13] = molecular target: T5, SARS-CoV-2 RBD-mFc; assay: Octet QKe BLI, 1:1 global fit
[14] = molecular target: T1, SARS-CoV 스파이크 [change] (#40150-V08B1, …); assay: ELISA, coated S1-His, as Example 5.2
[15] = molecular target: T5, SARS-CoV-2 RBD-mFc; assay: Octet QKe BLI, 1:1 global fit; remark: listed apart in the source

| Binder | binding result [1] | IC50, 세포내 유입(internalization) 억제, HEK293E/ACE2-GFP [2] [nM] | IC50, live SARS-CoV-2 미세중화분석, Vero 세포 [3] [nM] | IC50, 세포내 유입(internalization) 억제, HEK293E/ACE2-GFP [4] [nM] | IC50, live SARS-CoV-2 미세중화분석, Vero 세포, 72시간 [5] | binding result [6] | IC50 [7] [nM] | IC50 [8] [nM] | IC50 [9] [nM] | IC50 [10] [nM] | IC50 [11] [nM] | IC50 [12] [nM] | Kd [13] [nM] | koff [13] [s⁻¹] | kon [13] [M⁻¹ s⁻¹] | binding result [14] | Kd [15] [nM] | koff [15] [s⁻¹] | kon [15] [M⁻¹ s⁻¹] |
| --- | --- | --- | --- | --- | --- | --- | --- | --- | --- | --- | --- | --- | --- | --- | --- | --- | --- | --- | --- |
| SA3838 (antibody, V domains shown) VH: QVQLVESGAEVKKPGASVRVSCKISGYIFTELSIHWVRQAPGKGLEWMGGFDPEEGKTIYAQKFQGRVTMTEDTSTDTAYMELSSLRSEDTAVYYCAKIGHLGDFWYWGQGTLITVSS VL: QSALTQPASVSGSPGQSITISCTGTTSDIGSYDYVSWYQQHPGKAPKLIIYGVTRRPSGVSNRFSGSKSGNTASLTISRLLTEDEAEYYCATYTSSATYVFGTGTKVTVL | no binding (tested: 50 nM) | 36.1 | 9.4 | 42.8 | 13.5 nM | no binding | 1.2 | 2.25 | 2.2 | 1.62 | 3.38 | 2.99 |  |  |  |  |  |  |  |
| SA4079 (antibody, V domains shown) VH: QMQLVESGGGVVQPGGSLRLSCAASGFTFDDHTMHWVRQAPGKGLEWVSLISWDGGSTYYADSVKGRFTISRDNSKNSLYLQMNSLRAEDTAVYYCTRDASRRPGDGGYDFDVWGQGTQVTVSS VL: QAVVTQEPSLTVSPGGTATLTCGSSTGTVTRGHWPYWFQQKPGQAPRTLIYDTDTKHSWTPARFSGSLLGGKAALTLSGAQPEDEADYYCLLSYSDSRVFGTGTKVTVL |  |  |  | 40 | 2.74 nM | no binding |  | 2.71 |  | 3.62 |  | 2.35 | 0.154 | 5.73e-05 | 373000 | no binding |  |  |  |
| SA4055 (antibody, V domains shown) VH: EVQLVQSGGGLVQPGGSLRLSCAASVITVSSNYMSWVRQAPGKGLEWVSVIYPGGSTYYADSVKGRFTISRDKSKNTLYLQMNSLRAEDTAVYYCARDLDIVGGMDVWGQGTTVTVSS VL: QSALTQPASVSGSPGQSITISCTGTSSDVGDYNLVSWYQQHPGKAPKVMIYDVSHRPSGVSNRFSGSKSGNTASLTISGLQAEDEADYYCSSYTSSTTVVFGGGTKLTVL | no binding (tested: 50 nM) | 37.1 | 7 |  | 3.22 nM and 4.51 nM | no binding | 1.88 |  | 0.144 |  | 2.9 |  |  |  |  |  | 0.061 | 2.36e-05 | 387000 |
| SA3779 (antibody, V domains shown) VH: QVQLVESGGGVVQPGRSLRLSCAASGFTFSSYAMHWVRQAPGKGLEWVAVISYDGSNKYYADSAKGRFTISRDNSKNTLYLQMNSLRAEDTAVYYCARRGHYYDSSGYLYWGHGTLITVSS VL: DIQMTQSPSSLSASVGDRVTITCRASQRIATYLHWYQQKPGRAPKLLIYAASSLQTGVPSRFSGSGSGTDFTLTINSLQPEDFATYYCQQSYAIPYTFGQGTKLEIK | no binding (tested: 50 nM) | 18.9 | 56.8 | 27.3 | 45.6 nM | no binding | 4.03 | 3.59 | 11.2 | 7.96 | 2.84 | 2.65 |  |  |  |  | 1.05 | 0.000223 | 213000 |
| SA3827 (antibody, V domains shown) VH: QVQLVESGGTLVQPGRSLRLSCAASGFTFSSYAMHWVRQAPGKGLEWVAVISYDGSNKYYADSVKGRFTISRDNSKNTLYLQMNSLRAEDTAVYYCARRGHYYDSSGFLYWGQGTLVTVSS VL: DIQMTQSPSSLSASVGDRVTITCRASQSISTYLSWYQQKPGKAPKLLIYAASNLQSGVPSRFSASGSGTDFTLTISSLQPEDFATYYCQQSYNTPRTFGQGTKVEIK | no binding (tested: 50 nM) | 12.9 | 8.92 | 18.3 | 7.94 nM | no binding | 0.61 | 0.9 | 0.914 | 0.321 | 2.74 | 2.71 |  |  |  |  | 0.452 | 0.000173 | 383000 |
| SA4086 (antibody, V domains shown) VH: QVQLVESGGGVVQPGRSLRLSCAASGFTFSSYAMHWVRQAPGKGLEWVAVISYDGSNKYYADSAKGRFTISRDNSKNTLYLQMNSLRAEDTAVYYCARRGHYYDSSGYLYWGHGTLITVSS VL: DIQMTQSPSSLSASVGDRVTITCRASQSISTYLSWYQQKPGKAPKLLIYAASNLQSGVPSRFSASGSGTDFTLTISSLQPEDFATYYCQQSYNTPRTFGQGTKVEIK |  |  |  | 27.2 | 12.4 nM | no binding |  | 1.28 |  | 1.24 |  | 2.47 | 0.106 | 4.99e-05 | 471000 | no binding |  |  |  |
| SA4040 (antibody, V domains shown) VH: EVQLVQSGAEVKKPGASVKVSCKASGYTFTGYYMHWARQAPGQGLEWMGWINPNSGGTNYAQKFQGRVTMTRDTSITTAYMELSRLTSDDTAVYYCARDQAFSMVRGVTDYWGQGTLVTVSS VL: QSALTQPPSASGSPGQSVIISCTGSSSDVGGYNYVAWYQQYPGAAPKLIISEVTKRPSGVPDRFSGSKSGNTASLTISGLQAEDEANYYCSSYAGDNTWIFGGGTKLTVL | no binding (tested: 50 nM) | 30.8 | 8.14 |  |  | no binding | 3.1 |  | 25.3 |  | 1.59 |  |  |  |  |  | 0.384 | 0.000181 | 471000 |
| SA3902 (antibody, V domains shown) VH: QVQLVQSGAEVRQPGASVKVSCKTSGYAFSYYHIHWVRQAPGQGLEWMGLINPGSGGTNYAQKFQGRVTLTRDTSTSTVYMDLTGLRSEDTAVYYCAGSEQPHYYANGAYRVWGQGTLVTVSS VL: DIQMTQSPSTLSASVGDRVTITCRASQSISSYLNWYQQKPGKAPKLLIYEVSTLESGVPSRFSGSRSGTEFTLTISSLQPDDFATYYCQQYDTFGGGTKVEIK | no binding (tested: 50 nM) | 14.9 | 37.3 |  |  | no binding | 3.85 |  | 12.4 |  | 1.75 |  |  |  |  |  | 0.328 | 8.12e-05 | 247000 |
